Experiment [1] has as its target T1, recombinant human PEDF protein (pigment epithelium derived factor) (human, UniProt P36955 20-418).
T1 chain: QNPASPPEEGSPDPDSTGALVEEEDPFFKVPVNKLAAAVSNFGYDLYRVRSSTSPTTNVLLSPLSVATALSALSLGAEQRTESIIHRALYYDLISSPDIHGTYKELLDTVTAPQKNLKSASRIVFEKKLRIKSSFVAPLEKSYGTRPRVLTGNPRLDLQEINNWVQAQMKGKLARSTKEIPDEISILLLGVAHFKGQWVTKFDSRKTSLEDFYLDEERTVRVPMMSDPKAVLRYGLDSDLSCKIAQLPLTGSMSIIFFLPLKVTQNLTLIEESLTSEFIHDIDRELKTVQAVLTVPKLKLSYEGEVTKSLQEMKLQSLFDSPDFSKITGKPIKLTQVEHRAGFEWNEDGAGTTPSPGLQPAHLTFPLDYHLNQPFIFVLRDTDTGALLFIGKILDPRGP
The experiment is described as follows: SPR (BIAcore), PEDF immobilized on CM5 chip; PBS with 0.1% NP-40.

In experiment [2] the target is T1, recombinant human PEDF protein (pigment …). The experiment is described as above.

B1: R1N (recombinant human PEDF-R1 polypeptide with N-terminal 6xHis tag, from pEXP1-R1N) (receptor)
chain: MFPREKTWNISFAGCGFLGVYYVGVASCLREHAPFLVANATHIYGASAGALTATALVTGVCLGEAGAKFIEVSKEARKRFLGPLHPSFNLVKIIRSFLLKVLPADSHEHASGRLGISLTRVSDGENVIISHFNSKDELIQANVCSGFIPVYCGLIPPSLQGVRYVDGGISDNLPLYELKNTITVSPFSGESDICPQDSSTNIHELRVTNTSIQFNLRNLYRLSKALFPPEPLVLREMCKQGYRDGLRFLQRNGLLNRPNPLLALPPARPHGPEDKDQAVESAQAEDYSQLPGEDHILEHLPARLNEALLEACVEPTDLLTTLSNMLPVRLATAMMVPYTLPLESALSFTIRLLEWLPDVPEDIRWMKEQTGSICQYLVMRAKRKLGRHLPSRLPEQVELRRVQSLPSVPLSCAAYREALPGWMRNNLSLGDALAKWEECQRQLLLGLFCTNVAFPPEALRMRAPADPAPAPADPASPQHQLAGPAPLLSTPAPEARPVIGALGL
For B1, in experiment [1], the Ka worked out at 4.32e+08 M⁻¹. Besides, the equilibrium dissociation constant (Kd) in experiment [2] is 2.31 nM.

(Values after patent US20090162363A1 (published 2009).)
